12 substances from patent US6545131 can be followed below.

By Km is commonly meant the concentration of substrate that gives half-maximal velocity.

In series [1] the test system is Mu-HSSKLQ-AMC (His-Ser-Ser-Lys-Leu-Gln; SEQ ID NO:7).
In series [2] the test system is Mu-SKLQ-AMC (Ser-Lys-Leu-Gln; SEQ ID NO:1).
For series [3], the system named is Mu-EHSSKLQ-AMC (Glu-His-Ser-Ser-Lys-Leu-Gln; SEQ ID NO:10).
In series [4] the test system is Mu-QNKISYQ-AMC (Gln-Asn-Lys-Ile-Ser-Tyr-Gln; SEQ ID NO:11).
For series [5], the system named is Mu-ENKISYQ-AMC (Glu-Asn-Lys-Ile-Ser-Tyr-Gln; SEQ ID NO:12).
Series [6] relates to Mu-ATKSKQH-AMC (Ala-Thr-Lys-Ser-Lys-Gln-His; SEQ ID NO:13).
The subject of series [7] is Mu-HSSKLQ-AMC (His-Ser-Ser-Lys-Leu-Gln; SEQ ID NO:7). Description: fluorogenic AMC-release kinetics, Lineweaver-Burke plot.
The subject of series [8] is Mu-SKLQ-AMC (Ser-Lys-Leu-Gln; SEQ ID NO:1). Described as above.
For series [9], the system named is Mu-EHSSKLQ-AMC (Glu-His-Ser-Ser-Lys-Leu-Gln; SEQ ID NO:10). The description is as above.
For series [10], the system named is Mu-ATKSKQH-AMC (Ala-Thr-Lys-Ser-Lys-Gln-His; SEQ ID NO:13). The description is as above.

Chain of plasmin (P00747 20-580): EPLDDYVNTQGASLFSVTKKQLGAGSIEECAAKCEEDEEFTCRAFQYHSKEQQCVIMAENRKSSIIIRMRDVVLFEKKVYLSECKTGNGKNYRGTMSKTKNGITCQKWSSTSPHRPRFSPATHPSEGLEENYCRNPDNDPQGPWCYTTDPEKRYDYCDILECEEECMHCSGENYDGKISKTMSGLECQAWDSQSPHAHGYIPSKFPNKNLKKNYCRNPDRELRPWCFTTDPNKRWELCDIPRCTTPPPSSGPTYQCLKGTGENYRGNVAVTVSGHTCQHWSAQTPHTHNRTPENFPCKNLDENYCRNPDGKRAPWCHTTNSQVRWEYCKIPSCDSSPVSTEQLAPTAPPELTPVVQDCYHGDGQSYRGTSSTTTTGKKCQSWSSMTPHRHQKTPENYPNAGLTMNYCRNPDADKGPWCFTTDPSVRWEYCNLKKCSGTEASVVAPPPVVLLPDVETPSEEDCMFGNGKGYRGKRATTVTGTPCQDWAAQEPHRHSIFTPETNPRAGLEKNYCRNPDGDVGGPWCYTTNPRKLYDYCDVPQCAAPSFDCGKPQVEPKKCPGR
Chain of plasmin (P00747 581-810): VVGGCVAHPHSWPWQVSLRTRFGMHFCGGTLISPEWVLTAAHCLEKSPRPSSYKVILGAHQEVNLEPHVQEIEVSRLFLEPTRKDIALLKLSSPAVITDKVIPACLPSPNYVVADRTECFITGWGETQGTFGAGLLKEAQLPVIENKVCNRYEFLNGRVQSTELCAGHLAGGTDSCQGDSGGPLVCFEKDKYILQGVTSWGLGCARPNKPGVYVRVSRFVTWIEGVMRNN
Chain of tissue plasminogen activator (TPA) (P00750 36-562): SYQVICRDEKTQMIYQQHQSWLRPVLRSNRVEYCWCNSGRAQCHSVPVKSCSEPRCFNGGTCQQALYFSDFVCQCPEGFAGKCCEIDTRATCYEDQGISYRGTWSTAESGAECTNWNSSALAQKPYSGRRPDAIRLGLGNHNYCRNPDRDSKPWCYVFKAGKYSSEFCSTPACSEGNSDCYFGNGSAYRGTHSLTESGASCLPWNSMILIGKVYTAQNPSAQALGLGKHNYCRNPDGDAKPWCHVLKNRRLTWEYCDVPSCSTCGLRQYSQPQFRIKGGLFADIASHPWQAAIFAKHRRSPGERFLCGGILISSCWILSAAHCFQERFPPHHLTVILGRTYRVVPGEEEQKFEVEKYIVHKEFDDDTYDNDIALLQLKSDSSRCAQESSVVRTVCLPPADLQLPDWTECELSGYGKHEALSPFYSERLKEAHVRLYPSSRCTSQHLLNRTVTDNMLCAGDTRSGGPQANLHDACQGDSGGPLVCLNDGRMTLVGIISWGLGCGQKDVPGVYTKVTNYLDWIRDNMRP

For Cathepsin B, the peptide cleavage rate (AMC release) (pmol/min/200 pmol protease) was 17.3 in series [1]; 190 in the series with Mu-LQ-AMC; 31.2 in [2]; 4.3 in series [3]; 87 in the series on Mu-KLQ-AMC.
Take Cathepsin C: the peptide cleavage rate (AMC release) (pmol/min/200 pmol protease) (in series [1]; in the series on Mu-LQ-AMC; in [2]; in [3]; with Mu-KLQ-AMC) was less than 0.1 throughout.
Take Cathepsin D: the peptide cleavage rate (AMC release) (pmol/min/200 pmol protease) amounted to 3.8 in series [1], 20 in the series with Mu-LQ-AMC, 6.4 in series [2] and 2.2 in series [3].
Regarding chymotrypsin, the substrate cleavage rate (AMC release) (pmol/min/200 pmol protease) was 9 in series [4], 3.6 in series [5], less than 0.1 in series [3] and 38.8 in [6].
The like results for elastase were, in that order, 9, 2.6, less than 0.1 and less than 0.1.
Regarding human kallikrein, hK1, the substrate cleavage rate (AMC release) (pmol/min/200 pmol protease) in series [5], in series [3] and in [6] was less than 0.1 in each case.
Consider plasmin, for which the substrate cleavage rate (AMC release) (pmol/min/200 pmol protease) in series [4] was less than 0.1; in series [5], 0.6; in series [3], less than 0.1; in series [6], less than 0.1.
On to porcine liver esterase, for which the peptide cleavage rate (AMC release) (pmol/min/200 pmol protease) (in series [1]; with Mu-LQ-AMC; in series [2]; in series [3]; with Mu-KLQ-AMC) was less than 0.1 each time.
prostate specific antigen (PSA): the substrate cleavage rate (AMC release) (pmol/min/200 pmol protease) stood at 16.8 in [4], 14.4 in series [5], 31.6 in [3] and 16 in series [6]. The Kcat in series [1] stood at 0.011 s⁻¹; in [2], 0.02 s⁻¹; in [3] it was 0.02 s⁻¹; in [6] it was 0.0091 s⁻¹. Besides, the Kcat/Km was found to be 23.6 s^-1M^-1 in [1], 24.6 s^-1M^-1 in [2], 10.6 s^-1M^-1 in [3] and 6.9 s^-1M^-1 in series [6]. Also, the peptide cleavage rate (AMC release) (pmol/min/200 pmol protease) in [1] is 62.7; with Mu-LQ-AMC it was less than 0.1; in series [2] it was 29.6; in [3], 31.6; in the series on Mu-KLQ-AMC, 0.4. Besides, the Michaelis-Menten constant (Km) in series [7] amounted to 470 µM; in [8], 813 µM; in series [9], 1160 µM; in series [10], 310 µM.
thrombin: the substrate cleavage rate (AMC release) (pmol/min/200 pmol protease) was 0.4 in [4], 0.3 in series [5], less than 0.1 in series [3] and 0.2 in [6].
The like results for tissue plasminogen activator (TPA) were, in that order, 0.4, 0.04, less than 0.1 and less than 0.1.
Regarding urokinase, the substrate cleavage rate (AMC release) (pmol/min/200 pmol protease) in [5], in series [3] and in [6] was less than 0.1 throughout.
